# Reference: PMC2756588
# Target: T1, Abp1, P15891
# T1 sequence (P15891 535-592, looked up): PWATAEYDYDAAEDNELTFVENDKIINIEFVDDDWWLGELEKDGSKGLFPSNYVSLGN
# Test: SPOT array
# Conditions: median of control spots 935
row,Binder,SPOT intensity
1,WRPRIVPILPYITRL,10
2,TKRKRPARLIFYDSK,157

# The remaining lines, values ahead:
row,SPOT intensity,Binder
1,99,NFFRKKLGIPRKLKR
2,18,RRLRDKYKLPIVDAD

# Target: T2, Bbc1, P47068
# T2 sequence (P47068 1-78, looked up): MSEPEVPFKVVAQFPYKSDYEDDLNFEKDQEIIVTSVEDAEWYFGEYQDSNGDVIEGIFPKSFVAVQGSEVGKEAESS
# Test: SPOT array
# Conditions: median of control spots 796
row,Binder,SPOT intensity
1,WRPRIVPILPYITRL,87
2,TKRKRPARLIFYDSK,308

# Second part, the binder after the results:
row,SPOT intensity,Binder
1,101,NFFRKKLGIPRKLKR
2,14,RRLRDKYKLPIVDAD

# Target: Bem1-1, P29366
# Sequence (P29366 55-141): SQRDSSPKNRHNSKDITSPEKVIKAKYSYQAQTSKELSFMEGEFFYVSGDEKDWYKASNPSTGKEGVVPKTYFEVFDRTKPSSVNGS
# Test: SPOT array
# Conditions: median of control spots 4282
row,Binder,SPOT intensity
1,WRPRIVPILPYITRL,0
2,TKRKRPARLIFYDSK,0

# The next lines start with the values.
row,SPOT intensity,Binder
1,1,NFFRKKLGIPRKLKR
2,0,RRLRDKYKLPIVDAD

# Target: Bem1-2, P29366
# Sequence (P29366 139-227): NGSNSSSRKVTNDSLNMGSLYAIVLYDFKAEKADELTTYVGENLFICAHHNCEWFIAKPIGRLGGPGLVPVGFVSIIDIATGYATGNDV
# Test: SPOT array
# Conditions: median of control spots 4347
row,Binder,SPOT intensity
1,WRPRIVPILPYITRL,94
2,TKRKRPARLIFYDSK,6

# Now from value to binder:
row,SPOT intensity,Binder
1,13,NFFRKKLGIPRKLKR
2,2,RRLRDKYKLPIVDAD

# Target: T3, Boi1, P38041
# T3 sequence (P38041 1-86, looked up): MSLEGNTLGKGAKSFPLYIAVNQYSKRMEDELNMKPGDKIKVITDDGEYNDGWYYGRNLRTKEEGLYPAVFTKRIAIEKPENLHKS
# Test: SPOT array
# Conditions: median of control spots 1162
row,Binder,SPOT intensity
1,WRPRIVPILPYITRL,0
2,TKRKRPARLIFYDSK,39

# Second part, the binder after the results:
row,SPOT intensity,Binder
1,14,NFFRKKLGIPRKLKR
2,6,RRLRDKYKLPIVDAD

# Target: T4, Boi2, P39969
# T4 sequence (P39969 32-116, looked up): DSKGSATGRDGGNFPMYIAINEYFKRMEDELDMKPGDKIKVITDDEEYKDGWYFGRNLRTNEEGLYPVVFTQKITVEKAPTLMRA
# Test: SPOT array
# Conditions: median of control spots 1161
row,Binder,SPOT intensity
1,WRPRIVPILPYITRL,0
2,TKRKRPARLIFYDSK,9

# Other lines, results leading:
row,SPOT intensity,Binder
1,2,NFFRKKLGIPRKLKR
2,0,RRLRDKYKLPIVDAD

# Target: T5, Bud14, P27637
# T5 sequence (P27637 247-328, looked up): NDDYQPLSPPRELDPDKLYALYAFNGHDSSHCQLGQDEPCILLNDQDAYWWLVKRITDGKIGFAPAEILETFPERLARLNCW
# Test: SPOT array
# Conditions: median of control spots 956
row,Binder,SPOT intensity
1,WRPRIVPILPYITRL,2
2,TKRKRPARLIFYDSK,29

# Results, then the binder that gave them:
row,SPOT intensity,Binder
1,43,NFFRKKLGIPRKLKR
2,26,RRLRDKYKLPIVDAD

# Target: T6, Bzz1-1, P38822
# T6 sequence (P38822 478-572, looked up): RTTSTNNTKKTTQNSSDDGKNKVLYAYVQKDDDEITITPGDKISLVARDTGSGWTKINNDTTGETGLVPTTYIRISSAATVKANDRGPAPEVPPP
# Test: SPOT array
# Conditions: median of control spots 4446
row,Binder,SPOT intensity
1,WRPRIVPILPYITRL,0
2,TKRKRPARLIFYDSK,0

# Next, values leading:
row,SPOT intensity,Binder
1,0,NFFRKKLGIPRKLKR
2,0,RRLRDKYKLPIVDAD

# Target: T7, Bzz1-2, P38822
# T7 sequence (P38822 568-633, looked up): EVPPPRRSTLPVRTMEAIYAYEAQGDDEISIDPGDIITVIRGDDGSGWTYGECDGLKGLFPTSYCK
# Test: SPOT array
# Conditions: median of control spots 4538
row,Binder,SPOT intensity
1,WRPRIVPILPYITRL,0
2,TKRKRPARLIFYDSK,5

# The next lines start with the values.
row,SPOT intensity,Binder
1,7,NFFRKKLGIPRKLKR
2,2,RRLRDKYKLPIVDAD

# Target: T8, Cdc25, P04821
# T8 sequence (P04821 50-136, looked up): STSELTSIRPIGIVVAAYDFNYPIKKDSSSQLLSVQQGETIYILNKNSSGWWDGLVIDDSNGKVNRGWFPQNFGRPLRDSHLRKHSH
# Test: SPOT array
# Conditions: median of control spots 969
row,Binder,SPOT intensity
1,WRPRIVPILPYITRL,14
2,TKRKRPARLIFYDSK,61

# Other lines, results leading:
row,SPOT intensity,Binder
1,138,NFFRKKLGIPRKLKR
2,18,RRLRDKYKLPIVDAD

# Target: T9, Cyk3, Q07533
# T9 sequence (Q07533 1-83, looked up): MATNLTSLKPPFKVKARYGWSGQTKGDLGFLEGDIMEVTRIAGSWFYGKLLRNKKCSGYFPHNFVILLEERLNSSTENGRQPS
# Test: SPOT array
# Conditions: median of control spots 1451
row,Binder,SPOT intensity
1,WRPRIVPILPYITRL,0
2,TKRKRPARLIFYDSK,7

# The next lines start with the values.
row,SPOT intensity,Binder
1,4,NFFRKKLGIPRKLKR
2,1,RRLRDKYKLPIVDAD

# Target: T10, Fus1, P11710
# T10 sequence (P11710 432-512, looked up): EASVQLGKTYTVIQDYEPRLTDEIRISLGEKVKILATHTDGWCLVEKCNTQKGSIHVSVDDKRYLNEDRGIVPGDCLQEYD
# Test: SPOT array
# Conditions: median of control spots 1200
row,Binder,SPOT intensity
1,WRPRIVPILPYITRL,8
2,TKRKRPARLIFYDSK,29

# Second part, the binder after the results:
row,SPOT intensity,Binder
1,219,NFFRKKLGIPRKLKR
2,58,RRLRDKYKLPIVDAD

# Target: GST
# Test: SPOT array
# Conditions: median of control spots 978
row,Binder,SPOT intensity
1,WRPRIVPILPYITRL,0
2,TKRKRPARLIFYDSK,1

# Now from value to binder:
row,SPOT intensity,Binder
1,0,NFFRKKLGIPRKLKR
2,0,RRLRDKYKLPIVDAD

# Target: T11, Hof1, Q05080
# T11 sequence (Q05080 590-669, looked up): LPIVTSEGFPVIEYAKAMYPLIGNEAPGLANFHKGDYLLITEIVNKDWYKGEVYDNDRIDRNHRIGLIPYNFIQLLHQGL
# Test: SPOT array
# Conditions: median of control spots 4086
row,Binder,SPOT intensity
1,WRPRIVPILPYITRL,770
2,TKRKRPARLIFYDSK,4

# Results, then the binder that gave them:
row,SPOT intensity,Binder
1,29,NFFRKKLGIPRKLKR
2,9,RRLRDKYKLPIVDAD

# Target: T12, Hse1, P38753
# T12 sequence (P38753 208-285, looked up): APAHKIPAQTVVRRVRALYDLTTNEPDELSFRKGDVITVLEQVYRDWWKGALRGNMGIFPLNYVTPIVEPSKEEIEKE
# Test: SPOT array
# Conditions: median of control spots 1727
row,Binder,SPOT intensity
1,WRPRIVPILPYITRL,11
2,TKRKRPARLIFYDSK,11

# Second part, the binder after the results:
row,SPOT intensity,Binder
1,130,NFFRKKLGIPRKLKR
2,9,RRLRDKYKLPIVDAD

# Target: T13, Lsb1, P53281
# T13 sequence (P53281 45-122, looked up): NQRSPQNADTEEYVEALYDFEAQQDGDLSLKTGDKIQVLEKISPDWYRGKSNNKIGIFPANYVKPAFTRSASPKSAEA
# Test: SPOT array
# Conditions: median of control spots 388
row,Binder,SPOT intensity
1,WRPRIVPILPYITRL,22
2,TKRKRPARLIFYDSK,4

# Next, values leading:
row,SPOT intensity,Binder
1,234,NFFRKKLGIPRKLKR
2,48,RRLRDKYKLPIVDAD

# Target: T14, Lsb3, P43603
# T14 sequence (P43603 385-451, looked up): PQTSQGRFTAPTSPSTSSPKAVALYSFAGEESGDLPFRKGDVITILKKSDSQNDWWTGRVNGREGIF
# Test: SPOT array
# Conditions: median of control spots 406
row,Binder,SPOT intensity
1,WRPRIVPILPYITRL,0
2,TKRKRPARLIFYDSK,6

# Now from value to binder:
row,SPOT intensity,Binder
1,1,NFFRKKLGIPRKLKR
2,0,RRLRDKYKLPIVDAD

# Target: T15, Lsb4, P32793
# T15 sequence (P32793 402-468, looked up): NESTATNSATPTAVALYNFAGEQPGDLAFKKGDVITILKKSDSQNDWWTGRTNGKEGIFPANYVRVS
# Test: SPOT array
# Conditions: median of control spots 397
row,Binder,SPOT intensity
1,WRPRIVPILPYITRL,6
2,TKRKRPARLIFYDSK,7

# Next, values leading:
row,SPOT intensity,Binder
1,1,NFFRKKLGIPRKLKR
2,0,RRLRDKYKLPIVDAD

# Target: Myo3, P36006
# Test: SPOT array
# Conditions: median of control spots 468
row,Binder,SPOT intensity
1,WRPRIVPILPYITRL,0
2,TKRKRPARLIFYDSK,7

# More lines, now with the values ahead:
row,SPOT intensity,Binder
1,3,NFFRKKLGIPRKLKR
2,0,RRLRDKYKLPIVDAD

# Target: T16, Myo5, Q04439
# T16 sequence (Q04439 1072-1160, looked up): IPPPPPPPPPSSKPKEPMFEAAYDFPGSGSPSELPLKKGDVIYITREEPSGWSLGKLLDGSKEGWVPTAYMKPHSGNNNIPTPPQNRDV
# Test: SPOT array
# Conditions: median of control spots 471
row,Binder,SPOT intensity
1,WRPRIVPILPYITRL,0
2,TKRKRPARLIFYDSK,3

# The next lines start with the values.
row,SPOT intensity,Binder
1,0,NFFRKKLGIPRKLKR
2,0,RRLRDKYKLPIVDAD

# Target: T17, Nbp2, Q12163
# T17 sequence (Q12163 103-180, looked up): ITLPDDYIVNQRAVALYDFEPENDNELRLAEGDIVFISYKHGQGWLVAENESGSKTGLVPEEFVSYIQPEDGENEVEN
# Test: SPOT array
# Conditions: median of control spots 357
row,Binder,SPOT intensity
1,WRPRIVPILPYITRL,1
2,TKRKRPARLIFYDSK,183

# The remaining lines, values ahead:
row,SPOT intensity,Binder
1,72,NFFRKKLGIPRKLKR
2,7,RRLRDKYKLPIVDAD

# Target: T18, Pex13, P80667
# T18 sequence (P80667 295-386, looked up): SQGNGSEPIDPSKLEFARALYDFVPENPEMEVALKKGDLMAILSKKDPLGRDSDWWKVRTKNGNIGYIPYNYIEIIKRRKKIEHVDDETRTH
# Test: SPOT array
# Conditions: median of control spots 1341
row,Binder,SPOT intensity
1,WRPRIVPILPYITRL,10
2,TKRKRPARLIFYDSK,1

# The next lines start with the values.
row,SPOT intensity,Binder
1,14,NFFRKKLGIPRKLKR
2,0,RRLRDKYKLPIVDAD

# Target: T19, Pin3, Q06449
# T19 sequence (Q06449 53-122, looked up): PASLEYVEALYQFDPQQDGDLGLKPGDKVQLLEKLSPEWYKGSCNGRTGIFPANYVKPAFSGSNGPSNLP
# Test: SPOT array
# Conditions: median of control spots 2171
row,Binder,SPOT intensity
1,WRPRIVPILPYITRL,8
2,TKRKRPARLIFYDSK,0

# Continued, values first:
row,SPOT intensity,Binder
1,7,NFFRKKLGIPRKLKR
2,0,RRLRDKYKLPIVDAD

# Target: Rvs167, P39743
# Sequence (P39743 419-482): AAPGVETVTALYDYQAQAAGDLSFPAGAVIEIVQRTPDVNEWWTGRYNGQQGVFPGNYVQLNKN
# Test: SPOT array
# Conditions: median of control spots 2707
row,Binder,SPOT intensity
1,WRPRIVPILPYITRL,36
2,TKRKRPARLIFYDSK,0

# Continued, values first:
row,SPOT intensity,Binder
1,3,NFFRKKLGIPRKLKR
2,1,RRLRDKYKLPIVDAD

# Target: Sho1, P40073
# Sequence (P40073 287-367): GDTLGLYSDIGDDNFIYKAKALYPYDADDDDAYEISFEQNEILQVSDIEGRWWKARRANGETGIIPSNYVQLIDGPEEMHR
# Test: SPOT array
# Conditions: median of control spots 1148
row,Binder,SPOT intensity
1,WRPRIVPILPYITRL,3
2,TKRKRPARLIFYDSK,91

# Now from value to binder:
row,SPOT intensity,Binder
1,107,NFFRKKLGIPRKLKR
2,19,RRLRDKYKLPIVDAD

# Target: T20, Sla1-2, P32790
# T20 sequence (P32790 60-140, looked up): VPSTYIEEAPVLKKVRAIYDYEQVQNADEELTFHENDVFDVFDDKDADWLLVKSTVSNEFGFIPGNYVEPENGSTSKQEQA
# Test: SPOT array
# Conditions: median of control spots 712
row,Binder,SPOT intensity
1,WRPRIVPILPYITRL,0
2,TKRKRPARLIFYDSK,2

# The remaining lines, values ahead:
row,SPOT intensity,Binder
1,0,NFFRKKLGIPRKLKR
2,0,RRLRDKYKLPIVDAD

# Target: T21, Sla1-3, P32790
# T21 sequence (P32790 344-424, looked up): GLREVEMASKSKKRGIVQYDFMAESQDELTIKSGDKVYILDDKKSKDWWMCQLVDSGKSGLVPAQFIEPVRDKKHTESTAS
# Test: SPOT array
# Conditions: median of control spots 5475
row,Binder,SPOT intensity
1,WRPRIVPILPYITRL,9
2,TKRKRPARLIFYDSK,33

# Further lines, results first:
row,SPOT intensity,Binder
1,58,NFFRKKLGIPRKLKR
2,34,RRLRDKYKLPIVDAD
